One test has as its target 重组ESAT6蛋白 (Mycobacterium tuberculosis, UniProt P9WNK7 1-95). The test is described as follows: Western blotting.
The next test deals with T1, H37Rv中ESAT6抗原 (Mycobacterium tuberculosis H37Rv, UniProt P9WNK7 2-95).
T1 construct: also called H37Rv中的ESAT6抗原
Nature of the test: Western blotting.

T1 sequence (P9WNK7 2-95 limits assumed): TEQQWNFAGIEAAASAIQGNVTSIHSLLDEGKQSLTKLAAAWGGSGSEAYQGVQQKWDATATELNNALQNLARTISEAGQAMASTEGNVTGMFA
Sequence of 重组ESAT6蛋白 (P9WNK7 whole entry): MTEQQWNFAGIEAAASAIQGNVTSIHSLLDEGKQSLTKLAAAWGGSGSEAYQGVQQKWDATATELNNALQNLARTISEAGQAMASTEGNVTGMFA

B1: 单克隆抗体MAb 8G4 (抗ESAT6单克隆抗体, 杂交瘤细胞株8G4, CCTCC NO:C2019287) (antibody, V domains shown)
VH: QIQLVQSGPELKRPGETVKISCKASGYTFTNYGMNWVKQAPGKGLKWMGWINTYNGVPTYTDDFKGRFAFSLETSARTAYLQIKNLKNEDMATYFCAIGGNIPPAYWGQGTLVTVSA
VL: NIMMTQSPSSLAVSAREKVTMICKSSHSVLKSSNQKNYLAWYQQKPGQSPKLLIYWASTRNSGVPDRFTGSGSGTNFTLTITSVQTEDLAVYYCHQYLSSLTFGGGTKLELK
notes: also called 单克隆抗体8G4; ESAT6单克隆抗体8G4
As to B1, the binding result in the test with 重组ESAT6蛋白 and with H37Rv中ESAT6抗原 was “binds” in each case.

The record behind these values is patent CN111378628A (UNIV YANGZHOU, dated 2020).
